Results from patent US5458874A, “Method of increasing monocyte chemotaxis with CAP37 and monocyte chemotactic portions thereof” (Emory University, priority 1992, dated 1995).
“Also recorded” adds a separate entry of the source.

Columns and labels:
[1] = test system: rabbit PMN; test: Rabbit PMN chemotaxis; type: cell-based
Experimental: Chemotaxis was measured using the modified Boyden chamber technique (Snyderman et al.). The leading front method (Zigmond et al.) was used to assess migration of monocytes and lymphocytes through a 8 μm filter (Millipore Corporation, Bedford, Mass.). PMN chemotaxis was measured using a 3 μm filter (Millipore). The purified CAP37 protein (Example 1) used in chemotaxis assays were endotoxin-free as determined by the Limulus Amoebocyte Lysate Assay (Whittaker Bioproducts, Inc., Walkersville, Md.). The dilutions of CAP37 and N-formyl-methionyl-leucyl-phenylalanine (FMLP) were made in Geys buffer (Gibco) containing 2% endotoxin-free bovine serum albumin (BSA). Geys buffer containing 2% BSA served as the negative control, and a […] solution of FMLP as the positive control.
The chambers were incubated in a humidified atmosphere (6.2% CO2) for 2 hours when testing monocytes and lymphocytes, and for 30 minutes when testing PMNs. The filters were then removed and processed as previously described (Snyderman et al.). The cells were viewed using oil immersion and the distance the cells had migrated into the filter was determined over five different fields on the same slide (Zigmond et al.). Triplicate assays were performed for each experimental point.

[2] = test system: LPS from S. minnesota wild type; LPS from S. minnesota Re mutant; test: ELISA, binding of CAP37 to LPS; details: CAP37 at 120 ng/well; LPS 0 to 50 μg/ml
Experimental: The LPS from S. minnesota wild type, S. minnesota Re mutant, Lipid A from S. minnesota R595, and Lipid A from S. typhimurium Re mutant were applied to microtiter wells at concentrations ranging from 0 to 50 μg/ml and incubated overnight. The trays were then incubated with CAP37 at 120 ng/well for 1 hour at 37° C. The next incubation was with a rabbit antiserum against CAP37 (1:400 dilution) and the color development was as previously described (Pereira et al., 1989) and the absorbance was read at 492 nm.

[3] = test system: wild type LPS; test: Neutralization of LPS activity, limulus amebocyte lysate (LAL) assay, wild type LPS; type: biochemical
Experimental: Further, the neutralization of LPS activity, as assayed by the limulus amebocyte lysate (LAL) assay, by CAP37 was measured. CAP37 was diluted to the desired concentrations (from 6.2 ng/ml to 500 ng/ml) in geys buffered saline pH 7 (GIBCO). To this wild type LPS (RIBI IMMUNOCHEM) or Re LPS from Salmonella (David Morrison, Kansas Medical Center) was added so that the final concentrations were 0.1, 0.5, 1.0 and 2.0 ng/ml LPS. The tubes were incubated at 37° C. for between 30 to 60 minutes and then assayed in the chromogenic LAL assay, using polymyxin E as a control.
As discussed in Example 11, peptides can be screened for lipopolysaccharide neutralizing capacity using the LAL assay also. The CAP37 peptide was diluted to the desired concentrations (from 125 ng/ml to 4000 ng/ml) in geys buffered saline pH 7 (GIBCO). To this is added the wild type LPS (RIBI IMMUNOCHEM) or Re LPS from Salmonella (David Morrison, Kansas Medical Center) so that the final concentration is 0.1, 0.5, and 1.0 ng/ml LPS. The tubes were incubated at 37° C. for between 30 to 60 minutes and then assayed in the chromogenic LAL assay.

[4] = test system: monocytes/macrophages; test: In vivo chemotactic assay, intraperitoneal injection, peritoneal exudate cells; parameters: species or system BALB/c mice; details: for % PMN / % monocytes: i.p., mice, peritoneal exudate
Experimental: Female BALB/c mice (6-8 weeks) (Jackson Laboratory, Bar Harbor, […].) were injected intraperitoneally (i.p.) with 100 ng CAP37 (purified according to the method of the invention) per mouse in 2 ml RPMI-1640 serum-free medium (Mediatech). A control group of mice were injected i.p. with 2 ml brewers thioglycollate (4% w/v) (Difco Laboratories), a known stimulator of inflammatory cells whose action is well documented. A second control group of mice were injected j.p. with 2 ml of RPMI-1640 alone.
At 6, 24, 48 and 72 hours following these i.p. injections, four mice in each group were sacrificed by CO2 anesthesia. Ten ml sterile medium was injected into the peritoneal cavity of each mouse and the abdominal area gently massaged to dislodge the exudate cells. The medium containing the exudate cells was then aspirated from the peritoneal cavity using a 19 gauge needle attached to a syringe. The total number of cells in the peritoneal exudate was determined by counting the cells on a COULTER COUNTER (Coulter Electronics, Hialeah, Fla.: The operation of the COULTER COUNTER is based on electrical conductivity difference between particles and common diluent. Particles act as insulators, diluents as good conductors. The particles, suspended in an electrolyte, are forced through a small aperture through which an electrical current path has been established. As each particle displaces electrolyte in the aperture, a pulse essentially proportional to the particle volume is produced. Thus a 3-dimensional particle volume response is the basis for all sizing, regardless of position or orientation of the particle in solution.) One hundred μl of the peritoneal exudate was cytocentrifuged onto a glass slide and the cells stained with Wright's stain. A differential count of the cells was made by counting the number of monocytes, lymphocytes, neutrophils, basophils and eosinoplils per hundred consecutive cells. These experiments were performed to determine the time course of migration of neutrophils, monocytes, lymphocytes and other cells into the peritoneal cavity, in response to an i.p. injection of CAP37.

[5] = test system: E. coli; details: (Shafer, 1986); cited from earlier work
[6] = test system: Ps. aeruginosa; details: (Shafer, 1986); cited from earlier work

B1: CAP37: granule-associated cationic protein (mol. wt. 37,000 daltons) from human PMN, 222 amino acid mature protein (protein)
chain: IVGGRKARPRQFPFLASIQNQGRHFCGGALIHARFVMTAASCFQSQNPGVSTVVLGAYDLRRRERQSRQTFSISSMSENGYDPQQNLNDLMLLQLDREANLTSSVTILPLPLQNATVEAGTRCQVAGWGSQRSGGRLSRFPRFVNVTVTPEDQCRPNNVCTGVLTRRGGICNGDGGTPLVCEGLAHGVASFSLGPCGRGPDFFTRVALFRDWIDGVLNNPGP
- chemotactic response of rabbit PMN [1]: did not show a chemotactic response
- binding to LPS (ELISA) [2]: capable of binding Re LPS
- neutralization of wild type LPS activity (LAL assay) [3]: significantly neutralized LPS activity
- migration of cells into the peritoneal cavity (in words) ([4]; 100 ng CAP37 per mouse i.p.): moderately increased the overall numbers of cells; also recorded: potent monocyte chemoattractant capacity
- time at which monocytes appeared in the peritoneal cavity ([4]; 100 ng CAP37 per mouse i.p.): 24 h
- % PMN ([4]; 6 hours post injection): 65%
- % monocytes ([4]; 6 hours post injection): 7%
- % PMN ([4]; 24 hours post injection): dramatic reduction in neutrophils
- % monocytes ([4]; 24 hours post injection): 27%
- % PMN ([4]; 24 hours post injection, listed as CAP 37): 26%
- % PMN ([4]; 48 hours post injection): 4%
- % monocytes ([4]; 48 hours post injection): 48%
- % PMN ([4]; 72 hours post injection): 3%
- % monocytes ([4]; 72 hours post injection): 55%
- % survival with CAP 37 [5]: 4%
- % survival with CAP 37 [6]: 36%
